For one assay, the target named is T1, recombinant human hsp90α (human, UniProt P07900 1-732, limits assumed).
T1 construct: also called human hsp90a; human hsp 90 alpha
Kind of assay: Biacore SPR; human hsp90α amine-coupled to CM-5 chip, Mycograb injected; 1:1 Langmuir fit. In general terms: Surface plasmon resonance follows binding to a sensor surface in real time, without labels.

The target in assay [1] is T2, recombinant hsp90 from Candida albicans (Candida albicans, UniProt P46598 1-707).
T2 construct: also called Candida hsp90; Candida albicans hsp90
Kind of assay: Biacore SPR; Candida hsp90 amine-coupled to CM-5 chip, Mycograb injected; 1:1 Langmuir fit.

Assay [2] addresses T3, biotinylated LKVIRK peptide (SEQ ID NO: 4) (also: biotinylated, site not given here).
T3 construct: Captured non-covalently on a Sensor Chip SA; Any spacer between the biotin and the peptide is not described; also called immobilised peptide
T3 peptide: LKVIRK
Kind of assay: Biacore SPR; biotinylated peptide captured on SA chip, Mycograb injected; 1:1 Langmuir fit.

Ends that are not written are not given here.

T2 sequence (P46598 whole entry): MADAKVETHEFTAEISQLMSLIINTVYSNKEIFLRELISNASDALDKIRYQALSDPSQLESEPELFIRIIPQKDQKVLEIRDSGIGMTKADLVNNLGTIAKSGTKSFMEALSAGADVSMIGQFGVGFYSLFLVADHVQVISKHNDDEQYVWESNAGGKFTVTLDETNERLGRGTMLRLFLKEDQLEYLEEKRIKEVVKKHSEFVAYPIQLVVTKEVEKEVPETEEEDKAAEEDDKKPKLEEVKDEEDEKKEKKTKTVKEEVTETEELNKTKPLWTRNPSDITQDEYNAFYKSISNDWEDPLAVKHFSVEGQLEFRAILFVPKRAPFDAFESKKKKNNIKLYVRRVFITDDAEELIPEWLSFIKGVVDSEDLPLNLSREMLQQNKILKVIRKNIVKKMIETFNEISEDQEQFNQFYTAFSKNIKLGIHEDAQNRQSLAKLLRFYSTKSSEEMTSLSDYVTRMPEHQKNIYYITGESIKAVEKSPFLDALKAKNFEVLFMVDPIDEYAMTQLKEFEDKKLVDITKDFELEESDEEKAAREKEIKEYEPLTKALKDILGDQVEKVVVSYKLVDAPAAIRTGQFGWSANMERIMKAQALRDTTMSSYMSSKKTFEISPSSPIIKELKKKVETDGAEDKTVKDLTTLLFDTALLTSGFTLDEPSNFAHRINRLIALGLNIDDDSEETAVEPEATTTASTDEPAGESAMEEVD

B1: Mycograb® (antibody component, SEQ ID NO: 1) (antibody)
chain: HMAEVQLVESGAEVKKPGESLRISCKGSGCIISSYWISWVRQMPGKGLEWMGKIDPGDSYINYSPSFQGHVTISADKSINTAYLQWNSLKASDTAMYYCARGGRDFGDSFDYWGQGTLVTVSSGGGGSGGGGSGGGGSDVVMTQSPSFLSAFVGDRITITCRASSGISRYLAWYQQAPGKAPKLLIYAASTLQTGVPSRFSGSGSGTEFTLTINSLQPEDFATYYCQHLNSYPLTFGGGTKVDIKRAA
notes: Formulated as described in WO-A-01/76627; also called Mycogab; Mycograbg
As for B1, in the assay with recombinant human hsp90α, the Kd came to 3.27 µM, the koff worked out at 0.00321 s⁻¹ and the kon was 981 M⁻¹ s⁻¹. In assay [1], the Kd was determined as 717 nM, the koff amounted to 0.000267 s⁻¹ and the kon amounted to 373 M⁻¹ s⁻¹. Also, in assay [2], binding was characterised by a dissociation constant (Kd) of 28.6 nM, the koff amounted to 0.000647 s⁻¹ and the kon stood at 22600 M⁻¹ s⁻¹.

The Kd is the constant that tells how readily two partners part at equilibrium. Usually koff stands for the first-order rate constant of dissociation. For orientation: kon means a measure of how fast the partners come together.

Values taken from US20100055104A1 (NEUTEC PHARMA, published 2010).
